Source: IntAct's records for PubMed 17339482

B1: Complement factor H (Homo sapiens), P08603 (parent)
chain: MRLLAKIICLMLWAICVAEDCNELPPRRNTEILTGSWSDQTYPEGTQAIYKCRPGYRSLGNVIMVCRKGEWVALNPLRKCQKRPCGHPGDTPFGTFTLTGGNVFEYGVKAVYTCNEGYQLLGEINYRECDTDGWTNDIPICEVVKCLPVTAPENGKIVSSAMEPDREYHFGQAVRFVCNSGYKIEGDEEMHCSDDGFWSKEKPKCVEISCKSPDVINGSPISQKIIYKENERFQYKCNMGYEYSERGDAVCTESGWRPLPSCEEKSCDNPYIPNGDYSPLRIKHRTGDEITYQCRNGFYPATRGNTAKCTSTGWIPAPRCTLKPCDYPDIKHGGLYHENMRRPYFPVAVGKYYSYYCDEHFETPSGSYWDHIHCTQDGWSPAVPCLRKCYFPYLENGYNQNYGRKFVQGKSIDVACHPGYALPKAQTTVTCMENGWSPTPRCIRVKTCSKSSIDIENGFISESQYTYALKEKAKYQCKLGYVTADGETSGSITCGKDGWSAQPTCIKSCDIPVFMNARTKNDFTWFKLNDTLDYECHDGYESNTGSTTGSIVCGYNGWSDLPICYERECELPKIDVHLVPDRKKDQYKVGEVLKFSCKPGFTIVGPNSVQCYHFGLSPDLPICKEQVQSCGPPPELLNGNVKEKTKEEYGHSEVVEYYCNPRFLMKGPNKIQCVDGEWTTLPVCIVEESTCGDIPELEHGWAQLSSPPYYYGDSVEFNCSESFTMIGHRSITCIHGVWTQLPQCVAIDKLKKCKSSNLIILEEHLKNKKEFDHNSNIRYRCRGKEGWIHTVCINGRWDPEVNCSMAQIQLCPPPPQIPNSHNMTTTLNYRDGEKVSVLCQENYLIQEGEEITCKDGRWQSIPLCVEKIPCSQPPQIEHGTINSSRSSQESYAHGTKLSYTCEGGFRISEENETTCYMGKWSSPPQCEGLPCKSPPEISHGVVAHMSDSYQYGEEVTYKCFEGFGIDGPAIAKCLGEKWSHPPSCIKTDCLSLPSFENAIPMGEKKDVYKAGEQVTYTCATYYKMDGASNVTCINSRWTGRPTCRDTSCVNPPTVQNAYIVSRQMSKYPSGERVRYQCRSPYEMFGDEEVMCLNGNWTEPPQCKDSTGKCGPPPPIDNGDITSFPLSVYAPASSVEYQCQNLYQLEGNKRITCRNGQWSEPPKCLHPCVISREIMENYNIALRWTAKQKLYSRTGESVEFVCKRGYRLSSRSHTLRTTCWDGKLEYPTCAKR
partner: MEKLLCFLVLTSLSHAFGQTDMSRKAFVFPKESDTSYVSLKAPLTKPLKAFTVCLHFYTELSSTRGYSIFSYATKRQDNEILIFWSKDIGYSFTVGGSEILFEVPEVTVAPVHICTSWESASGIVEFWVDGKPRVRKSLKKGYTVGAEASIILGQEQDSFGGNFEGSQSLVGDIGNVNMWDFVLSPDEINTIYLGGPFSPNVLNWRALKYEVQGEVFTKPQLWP

Variants of: B1
Conditions: with crp_human CRP

Row | Variant | effect of a mutation on the interaction
1 | Y402H | decreasing interaction strength
